IntAct's records for PubMed 11739402

Assays:
gors2_rat Gorasp2 = gors2_rat Gorasp2 (UniProt Q9R064)
gors1_rat Gorasp1 = gors1_rat Gorasp1 (UniProt O35254)
gors1_rat Gorasp1, sequence (O35254 whole entry): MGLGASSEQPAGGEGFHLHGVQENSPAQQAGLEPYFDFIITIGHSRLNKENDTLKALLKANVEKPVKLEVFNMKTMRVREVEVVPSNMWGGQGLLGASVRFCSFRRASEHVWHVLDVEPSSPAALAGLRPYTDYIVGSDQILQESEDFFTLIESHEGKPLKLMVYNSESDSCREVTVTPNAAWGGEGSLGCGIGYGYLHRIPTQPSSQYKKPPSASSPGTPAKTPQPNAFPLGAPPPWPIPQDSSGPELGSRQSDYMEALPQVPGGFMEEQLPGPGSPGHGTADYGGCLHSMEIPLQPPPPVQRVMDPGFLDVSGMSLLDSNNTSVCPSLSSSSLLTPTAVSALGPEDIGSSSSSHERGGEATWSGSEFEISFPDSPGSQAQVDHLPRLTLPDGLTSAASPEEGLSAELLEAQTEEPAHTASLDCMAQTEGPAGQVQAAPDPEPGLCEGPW

Transmembrane emp24 domain-containing protein 2 (Rattus norvegicus (Rat)), Q63524 V200A;V201A, sequence (Q63524 whole entry V200A/V201A, the tested form may be a part): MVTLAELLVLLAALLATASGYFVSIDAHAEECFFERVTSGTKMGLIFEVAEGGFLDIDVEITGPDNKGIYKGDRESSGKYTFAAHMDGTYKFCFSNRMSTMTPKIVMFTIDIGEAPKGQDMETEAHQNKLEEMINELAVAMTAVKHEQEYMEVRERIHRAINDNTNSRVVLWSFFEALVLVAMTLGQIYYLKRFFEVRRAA

Transmembrane emp24 domain-containing protein 2 (Rattus norvegicus (Rat)), Q63524 V200A;V201A
effect of a mutation on the interaction (gors2_rat Gorasp2): decreasing interaction | effect of a mutation on the interaction (gors1_rat Gorasp1): decreasing interaction
